Source: patent US20170362325A1

Molecular target: CD18 (Integrin beta-2) (human) (UniProt P05107)
Experiment: cell-based or functional assay

Chain of UniProt P05107 (P05107 23-769): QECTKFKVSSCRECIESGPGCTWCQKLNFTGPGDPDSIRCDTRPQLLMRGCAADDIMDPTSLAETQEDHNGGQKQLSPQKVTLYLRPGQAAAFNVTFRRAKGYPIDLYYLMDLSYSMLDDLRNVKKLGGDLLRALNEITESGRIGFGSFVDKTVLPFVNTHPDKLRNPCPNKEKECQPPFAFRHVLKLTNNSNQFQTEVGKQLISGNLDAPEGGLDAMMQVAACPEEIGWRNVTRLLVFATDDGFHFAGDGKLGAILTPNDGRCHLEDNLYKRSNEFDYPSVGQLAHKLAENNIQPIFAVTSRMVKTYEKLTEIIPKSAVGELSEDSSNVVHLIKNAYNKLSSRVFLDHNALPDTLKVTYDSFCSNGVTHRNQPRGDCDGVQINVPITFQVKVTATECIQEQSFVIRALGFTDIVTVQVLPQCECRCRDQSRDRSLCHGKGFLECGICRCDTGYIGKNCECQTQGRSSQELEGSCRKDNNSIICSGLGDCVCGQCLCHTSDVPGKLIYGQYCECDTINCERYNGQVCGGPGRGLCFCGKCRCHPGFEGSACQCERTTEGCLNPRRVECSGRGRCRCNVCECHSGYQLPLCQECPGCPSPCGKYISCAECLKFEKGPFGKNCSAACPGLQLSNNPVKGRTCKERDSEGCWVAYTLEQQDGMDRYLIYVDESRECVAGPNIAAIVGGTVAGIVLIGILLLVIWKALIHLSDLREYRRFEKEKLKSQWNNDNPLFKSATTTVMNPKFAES

- 3H-thymidine uptake (cpm), PBMC + HUVEC + PSMA×CD3, off target activation (FIG. 3A; control about 30000 cpm): < 10000 cpm
Substance: anti-CD18 antibody molecule TS 1/18
